Legend:
[1] = system: integrin-mediated cell adhesion; assay: Integrin-mediated cell adhesion to fibronectin; format: cell-based
[2] = system: DU-145 cells; assay: MatriGel invasion assay; format: cell-based, human; settings: 24 hours
Description: FIG. 3 illustrates EphA activation inhibited DU-145 cell invasion. DU-145 cells were placed in the upper chamber of MatriGel-coated Transwell. Fc, ephrin-A1-Fc, HGF/SF/Fc or HGF/SF/ephrin-A1-Fc, were added in the lower chamber. After 24 hours, cells invading through MatriGel and migrated to the undersides of membrane were counted. Representative results (mean±S.D.) from three independent experiments are shown.
For invasion assay, the upper chamber was coated with 50 μg of growth factor-reduced MatriGel (BD) according to manufacturer's instructions. The same procedure as in migration assay was followed, except that the cells were allowed 24 hours to migrate to the underside of the membranes.

[3] = system: DU-145 cells; assay: Modified Boyden chamber cell migration assay; format: cell-based, human
Description: FIGS. 2(A-E) illustrate EphA activation inhibited DU-145 cell migration. (A) Expression of c-Met is elevated in cell lines derived from more malignant prostate cancer. Total cellular proteins were immunoblotted with anti-human c-Met. An anti-tubulin blot was used as a control for protein loading. (B) In a modified Boyden chamber assay, DU-145 cells were placed in the upper chamber and allowed to migrate to the lower chamber containing indicated reagents. After 8 hours, cells were stained with crystal violet and cells remaining in the upper chamber were removed. Top panel: Cells migrated to the undersides of membrane were counted; six high power fields were counted. Results represent means±S.D. Representative fields were shown in the lower panel. (C) Ephrin-A1-Fc inhibits DU-145 cell migration when HGF/SF was uniformly presented in both sides of membranes. The experiment was carried out as described in A. (D) Inhibition of cell scattering by immobilized ephrin-A1 in a SOIL assay (Method). Ephrin-A1-Fc or control Fc was immobilized on 6-well culture dishes. Freshly confluent DU-145 cells on cover slips were transferred to the coated surfaces. Cells were stimulated with HGF/SF to induce migration off the cover slips to immobilized Fc or ephrin-A1-Fc. After 48 hours, cells were fixed and stained with crystal violet. The cells that had migrated to the coated surface were photographed after removing cover slips. (E) DU-145 cells were grown to confluency and a wound was generated by scratching monolayer with a 200 μl pipette tip. The wound healing was recorded prior to and 12 hours after the addition of Fc, ephrin-A1-Fc (1 μg/ml) and/or HGF/SF (20 ng/ml). Representative results from 3 independent experiments are shown.
Modified Boyden chambers of 8 μm pore size (Costar) were used for migration assay. Both sides of the membranes were coated with 10 μg/ml collagen at 4° C. overnight. […] Cells migrated to the underside of the membrane were counted under 200× magnification.

[4] = target: T1, EphA1 (Homo sapiens, UniProt P21709); assay: Proliferation of DU145 cells expressing EphA1; format: cell-based; settings: 10% serum 7 days or 0.5% serum 18 days
T1 construct: expressed in transfected cells; host or cells: DU145 cells, retroviral infection
T1 sequence (P21709 26-976): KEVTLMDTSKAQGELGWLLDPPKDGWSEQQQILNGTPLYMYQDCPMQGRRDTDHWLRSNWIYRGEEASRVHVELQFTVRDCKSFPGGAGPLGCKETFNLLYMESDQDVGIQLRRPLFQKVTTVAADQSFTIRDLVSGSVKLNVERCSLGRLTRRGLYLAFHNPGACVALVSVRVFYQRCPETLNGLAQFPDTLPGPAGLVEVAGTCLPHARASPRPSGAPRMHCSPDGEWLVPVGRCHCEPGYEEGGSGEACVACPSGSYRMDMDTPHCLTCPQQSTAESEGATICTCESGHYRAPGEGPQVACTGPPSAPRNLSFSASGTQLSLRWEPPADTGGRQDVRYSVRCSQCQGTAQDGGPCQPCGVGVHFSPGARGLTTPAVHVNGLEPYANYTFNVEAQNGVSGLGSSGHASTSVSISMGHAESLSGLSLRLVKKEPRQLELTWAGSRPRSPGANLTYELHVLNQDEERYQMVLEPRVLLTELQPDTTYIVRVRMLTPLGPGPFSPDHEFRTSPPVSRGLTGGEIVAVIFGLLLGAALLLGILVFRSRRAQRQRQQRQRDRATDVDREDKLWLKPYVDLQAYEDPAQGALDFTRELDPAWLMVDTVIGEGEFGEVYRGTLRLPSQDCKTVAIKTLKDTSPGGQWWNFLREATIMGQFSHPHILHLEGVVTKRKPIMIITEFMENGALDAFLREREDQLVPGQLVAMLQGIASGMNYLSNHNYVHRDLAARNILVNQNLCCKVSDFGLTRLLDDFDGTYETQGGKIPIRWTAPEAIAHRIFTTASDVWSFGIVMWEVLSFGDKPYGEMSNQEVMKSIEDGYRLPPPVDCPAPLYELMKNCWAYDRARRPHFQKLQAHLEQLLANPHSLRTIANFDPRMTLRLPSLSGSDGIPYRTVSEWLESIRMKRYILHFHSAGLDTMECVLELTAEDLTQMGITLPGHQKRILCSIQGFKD
Description: (§1) FIGS. 49(A-B) illustrate expression of EphA1 in DU145 cells infected with vector control (control) and EphA1 expression retrovirus. FIG. 49B illustrates that about 2,000 cells were plated on 12-well plates in the regular culture medium (10% serum) and low serum medium (0.5%). Cell were cultured for 7 days (10% serum) or 18 days (0.5%). FIG. 49B illustrates that proliferation of prostatic epithelial cells expressing EphA1 and activated with Ephrin-A1 is inhibited.
as §1, with “DU145 human prostatic epithelial cells were infected with retrovirus expressing EphA1. FIG. 49A illustrates” for “FIGS. 49(A-B) illustrate”

B1: ephrin-A1-Fc: ephrin-A1 dimerized by fusion to the heavy chain of human IgG1 (protein)
chain: DRHTVFWNSSNPKFRNEDYTIHVQLNDYVDIICPHYEDHSVADAAMEQYILYLVEHEEYQLCQPQSKDQVRWQCNRPSAKHGPEKLSEKFQRFTPFTLGKEFKEGHSYYYISKPIHQHEDRCLRLKVTVSGKITHSPQAHDNPQEKRLAADDPEVRVLHSIGHS
modifications: left off: a dimerising Fc or GST
notes: ephrin-A1 dimerized by fusion to the heavy chain of human IgG1
effect of ligand clustering on inhibition of cell adhesion to fibronectin [1]: did not increase the inhibitory effects
HGF/SF-induced cell invasion [2]: significantly reduced
basal cell invasion [2]: marginally reduced the basal cell invasion
cell migration with HGF/SF on both sides ([3]; HGF/SF both sides, ligand in lower chamber only): significantly reduced the number of cells migrated
HGF/SF-stimulated cell migration ([3]; HGF/SF in lower chamber): potently inhibited
basal cell migration ([3]; lower chamber, 1 μg/ml, 8 hours, vs Fc): reduced the basal level of cell migration
proliferation of cells expressing EphA1 [4]: is inhibited

Reference: patent US10434074B2, “Peptide and small molecule agonists of EPHA and uses thereof” (CASE WESTERN RESERVE UNIVERSITY, priority 2004, dated 2019)
